From US20260167677A1 (Memorial Sloan Kettering, published 2026)

T1: ADAM10 D+C domains construct (species not stated) (Bos taurus (Bovine), UniProt Q10741 455-646)
T1 construct: also called ADAM10 D+C antigen; isolated recombinant ADAM10 D+C region
T1 sequence: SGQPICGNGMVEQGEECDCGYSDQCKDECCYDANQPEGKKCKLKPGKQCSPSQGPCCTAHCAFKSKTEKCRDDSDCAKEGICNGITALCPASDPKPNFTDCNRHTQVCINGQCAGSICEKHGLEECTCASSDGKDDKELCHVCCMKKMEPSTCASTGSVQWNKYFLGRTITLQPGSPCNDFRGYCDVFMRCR

T2: human ADAM10 expressed on the cell surface (LIM1215, COLO205, HEK293, HEK293 transfected with full-length … (human, UniProt O14672 214-748))
T2 construct: whole, on cells; also called tumor-expressed ADAM10; ADAM10 expressed on HEK293 cells
T2 sequence (looked up): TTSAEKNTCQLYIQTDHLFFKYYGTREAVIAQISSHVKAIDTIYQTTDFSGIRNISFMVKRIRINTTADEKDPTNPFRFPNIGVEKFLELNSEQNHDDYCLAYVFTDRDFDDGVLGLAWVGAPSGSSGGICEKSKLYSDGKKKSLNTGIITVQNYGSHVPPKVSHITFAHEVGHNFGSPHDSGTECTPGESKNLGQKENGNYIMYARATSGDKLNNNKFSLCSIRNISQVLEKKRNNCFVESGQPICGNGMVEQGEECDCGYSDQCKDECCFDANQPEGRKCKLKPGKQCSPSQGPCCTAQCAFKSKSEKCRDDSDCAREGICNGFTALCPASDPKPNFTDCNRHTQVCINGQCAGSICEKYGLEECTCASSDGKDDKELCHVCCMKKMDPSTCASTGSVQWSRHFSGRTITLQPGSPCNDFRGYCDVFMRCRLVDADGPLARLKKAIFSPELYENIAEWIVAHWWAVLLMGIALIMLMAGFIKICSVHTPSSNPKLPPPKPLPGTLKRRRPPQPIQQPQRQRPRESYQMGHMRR

T3: human ADAM10 D+C (455-650) (human, UniProt O14672 455-650)
T3 construct: range 455-650; also called human (h) ADAM10 D+C; human (h) ADAM10 D-C
T3 sequence (looked up): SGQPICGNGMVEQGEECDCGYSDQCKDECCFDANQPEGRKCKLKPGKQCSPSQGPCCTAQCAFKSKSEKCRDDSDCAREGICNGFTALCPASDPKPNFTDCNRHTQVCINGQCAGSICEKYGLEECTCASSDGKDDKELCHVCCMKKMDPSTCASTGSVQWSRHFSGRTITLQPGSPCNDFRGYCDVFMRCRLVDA

T4: bovine ADAM10 disintegrin+cysteine-rich domain construct (D+C, residues 455-646) (bovine, UniProt Q10741 455-646)
T4 construct: range 455-646; also called ADAM10 D+C (b); bovine (b) ADAM10 D+C
T4 sequence (looked up): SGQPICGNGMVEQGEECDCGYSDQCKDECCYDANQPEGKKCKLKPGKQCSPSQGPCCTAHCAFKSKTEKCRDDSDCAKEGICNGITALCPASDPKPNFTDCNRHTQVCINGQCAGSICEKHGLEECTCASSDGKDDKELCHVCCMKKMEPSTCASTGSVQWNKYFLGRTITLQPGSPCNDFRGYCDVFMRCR


How the values were obtained:
[1] = molecular target: recombinant ADAM10 ECD (species not stated); assay: cell-based or functional assay
[2] = molecular target: T1, ADAM10 D+C domains construct (species …); assay: biolayer interferometry (data not shown)
[3] = molecular target: T5, recombinant ADAM10 ECD (species not stated); assay: biolayer interferometry (data not shown)
T5 construct: extracellular domain; also called full recombinant ADAM10 ECD

[4] = molecular target: T2, human ADAM10 expressed on the cell …; assay: cell-based ELISA, 1H5 signal normalised to mAb1427 signal
Method: Briefly, 5×10⁴ cells/well were immobilized on 96-well ELISA plates (Greiner bio-one) with 1% paraformaldehyde for 2 hours at 37° C. The plate was washed thrice with PBS and blocked for 2 hours at room temperature with 4% non-fat dry milk. The anti-ADAM10 mAbs were added in varying concentrations. […] The data was recorded at 450 nm.

[5] = molecular target: T3, human ADAM10 D+C (455-650); assay: ELISA, 1H5 IgG titrated on immobilised human ADAM10 D+C, absorbance 450 nm [cont.) E]
[6] = molecular target: T4, bovine ADAM10 disintegrin+cysteine-rich …; assay: ELISA, 1H5 IgG titrated on immobilised bovine ADAM10 D+C, absorbance 450 nm [cont.) E]
[7] = molecular target: T1, ADAM10 D+C domains construct (species …); assay: ELISA, 1H5 Fab titrated on ADAM10 D+C, absorbance 450 nm
Method: To perform the competitive ELISA, wells were coated with 100 μl of ADAM10 D+C (concentration 2 μg/ml). After washes with phosphate buffer solution (PBS), the wells were blocked with 4% non-fat dry milk. […] Color was developed using a TMB substrate kit and data was recorded at 450 nm. […] The final concentration of each mAb in the mixture was the same as when added individually. The mixture was added to the wells and incubated for 1 hour.

augmentation of fluorogenic substrate peptide cleavage, relative to 8C7 [1] [fold]	Kd [2] [nM]	Kd [3] [nM]	fold better binding to tumor-expressed ADAM10 than to ADAM10 expressed on HEK293 cells [4] [fold]	EC50 (read off the curve) [5] [nM]	EC50 (read off the curve) [6] [nM]	EC50 [7] [nM]	Binder
~2	3.3	~200	~14	~3	~3		1H5 IgG (fully human anti-ADAM10 monoclonal antibody) (antibody, V domains shown, the amino acid entries 14 and 15 are used here; also called 1H5 mAb; mAb 1H5) VH: QVQLVESGGGLVKPGGSLRLSCAASGFTFSDYYMSWIRQAPGKGLEWVSYISSSGSTIYYADSVKGRFTISRDNAKNSLYLQMNSLRAEDTAVYYCARDFYDSKIFDYWGQGTLVTVSS VL: DIQMTQSPSSLSASVGDRVTITCRASQSISSYLNWYQQKPGKAPKLLIYAASSLQSGVPSRFSGSGSGTDFTLTISSLQPEDVGVYYCMEGLKTPFTFGPGTKLEIKR
						15	1H5 Fab (Fab, V domains shown, also called 1H5 Fab fragment; Fab fragment of 1H5) VH: QVQLVESGGGLVKPGGSLRLSCAASGFTFSDYYMSWIRQAPGKGLEWVSYISSSGSTIYYADSVKGRFTISRDNAKNSLYLQMNSLRAEDTAVYYCARDFYDSKIFDYWGQGTLVTVSS VL: DIQMTQSPSSLSASVGDRVTITCRASQSISSYLNWYQQKPGKAPKLLIYAASSLQSGVPSRFSGSGSGTDFTLTISSLQPEDVGVYYCMEGLKTPFTFGPGTKLEIKR
